Test results: patent publication US20230279151A1

Molecular target: human IL13 (IL012, Millipore) (human) (UniProt P35225)
Assay: SPR, Biacore 3000, antibody captured by anti-human Fc, IL13 as analyte; HEK293-FS expression

Chain of human IL13 (IL012, Millipore) (human) (P35225 35-146 limits assumed): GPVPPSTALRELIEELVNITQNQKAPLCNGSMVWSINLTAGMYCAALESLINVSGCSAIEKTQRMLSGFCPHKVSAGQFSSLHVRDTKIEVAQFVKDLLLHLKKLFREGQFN

B1: anti-IL13 mAb ctrl (antibody, from a related filing, V domains shown)
VH: EVQLKESGPGLVAPGGSLSITCTVSGFSLTDSSINWVRQPPGKGLEWLGMIWGDGRIDYADALKSRLSISKDSSKSQVFLEMTSLRTDDTATYYCARDGYFPYAMDFWGQGTSVTVSS
VL: DIVLTQSPASLAVSLGQRATISCRASESVDSYGQSYMHWYQQKAGQPPKLLIYLASNLESGVPARFSGSGSRTDFTLTIDPVQAEDAATYYCQQNAEDSRTFGGGTKLEIK
- Kd: 0.0888 nM
- koff: 4.52e-05 s⁻¹
- kon: 508000 M⁻¹ s⁻¹
